These results are taken from patent publication US20100136005A1.

One assay deals with human CD18 (human) (UniProt P05107). Nature of the assay: cell-based or functional assay.
A further assay has as its target rhesus CD18 (rhesus) (UniProt H9Z8N5). Briefly: cell-based or functional assay.

Sequence of human CD18 (human) (P05107 23-769): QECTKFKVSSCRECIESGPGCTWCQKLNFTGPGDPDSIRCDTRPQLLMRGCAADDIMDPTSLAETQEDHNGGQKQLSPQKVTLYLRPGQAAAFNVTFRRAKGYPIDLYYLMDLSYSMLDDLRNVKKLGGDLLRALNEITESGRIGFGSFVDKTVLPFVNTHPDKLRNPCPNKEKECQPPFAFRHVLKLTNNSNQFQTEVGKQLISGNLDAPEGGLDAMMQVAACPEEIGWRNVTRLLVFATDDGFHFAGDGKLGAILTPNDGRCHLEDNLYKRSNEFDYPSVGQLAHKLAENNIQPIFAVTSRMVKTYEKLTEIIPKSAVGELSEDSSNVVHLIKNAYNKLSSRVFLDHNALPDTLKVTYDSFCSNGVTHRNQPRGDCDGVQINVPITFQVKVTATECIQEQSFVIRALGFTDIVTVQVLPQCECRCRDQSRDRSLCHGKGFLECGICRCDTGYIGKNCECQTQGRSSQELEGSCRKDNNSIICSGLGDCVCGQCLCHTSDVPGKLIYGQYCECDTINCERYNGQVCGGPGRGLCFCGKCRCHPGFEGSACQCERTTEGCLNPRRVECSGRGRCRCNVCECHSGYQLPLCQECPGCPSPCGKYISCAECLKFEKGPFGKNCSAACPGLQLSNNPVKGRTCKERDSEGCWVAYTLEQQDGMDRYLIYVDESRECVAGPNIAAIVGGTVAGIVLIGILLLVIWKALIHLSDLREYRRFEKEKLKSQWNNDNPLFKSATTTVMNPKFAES

Take murine anti-human CD18 antibody MHM23: the IC50 Value (nM), Rh/HuCD11a:HuK cell adhesion in the assay with human CD18 (human) came out at 1.4 nM. Besides, in the assay with rhesus CD18 (rhesus), the IC50 Value (nM), RhLy:HuICAM cell adhesion turned out to be 1.2 nM; the IC50 Value (nM), RhLy:HuK cell adhesion stood at 1.6 nM; the IC50 Value (nM), rhesus mixed lymphocyte response is 30.4 nM.
